Patent US20240287172A1 (SCIRHOM, published 2024)

What was measured:
[1] = target: T1, hiR2-FL-Q510A-T7 (human, UniProt Q6PJF5 1-856); experiment: FACS on MEF-DKO cells expressing the variant, 3 µg/ml antibody
T1 construct: reduced surface expression reported
T1 sequence: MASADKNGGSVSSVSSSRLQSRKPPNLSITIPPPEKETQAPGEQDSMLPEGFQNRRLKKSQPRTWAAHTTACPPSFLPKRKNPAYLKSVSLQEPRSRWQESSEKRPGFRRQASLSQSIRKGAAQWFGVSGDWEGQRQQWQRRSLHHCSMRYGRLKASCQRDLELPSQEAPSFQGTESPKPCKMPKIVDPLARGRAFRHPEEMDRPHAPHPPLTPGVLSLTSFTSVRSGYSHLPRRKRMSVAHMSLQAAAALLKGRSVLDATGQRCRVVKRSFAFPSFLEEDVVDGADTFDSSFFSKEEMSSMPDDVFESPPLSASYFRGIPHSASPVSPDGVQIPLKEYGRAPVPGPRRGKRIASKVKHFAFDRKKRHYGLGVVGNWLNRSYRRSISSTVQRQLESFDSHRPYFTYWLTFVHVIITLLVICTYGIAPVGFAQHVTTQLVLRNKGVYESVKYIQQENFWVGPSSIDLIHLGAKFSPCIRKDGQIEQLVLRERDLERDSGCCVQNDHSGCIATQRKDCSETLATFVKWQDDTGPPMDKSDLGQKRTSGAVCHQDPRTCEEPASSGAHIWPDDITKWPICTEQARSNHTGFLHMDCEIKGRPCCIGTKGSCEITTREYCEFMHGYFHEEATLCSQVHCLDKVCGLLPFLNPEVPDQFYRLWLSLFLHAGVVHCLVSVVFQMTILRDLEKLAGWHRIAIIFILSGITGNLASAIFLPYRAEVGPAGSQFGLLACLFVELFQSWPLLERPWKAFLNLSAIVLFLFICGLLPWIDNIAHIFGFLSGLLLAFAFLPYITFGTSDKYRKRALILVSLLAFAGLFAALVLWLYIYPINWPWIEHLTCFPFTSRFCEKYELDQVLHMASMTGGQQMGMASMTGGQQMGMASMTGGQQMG
Method in brief: (§1)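 Cells were stained with purified antibody at 3 μg/ml in FACS buffer for 1 hour on ice, with buffer-only controls. Bound antibody was detected with PE-conjugated goat anti-mouse IgG F(ab′)2 at 1:100, 1 hour on ice in the dark, followed by flow cytometry.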

[2] = target: T2, hiR2-FL-T578A-T7 (human, UniProt Q6PJF5 1-856); experiment: as above
T2 sequence: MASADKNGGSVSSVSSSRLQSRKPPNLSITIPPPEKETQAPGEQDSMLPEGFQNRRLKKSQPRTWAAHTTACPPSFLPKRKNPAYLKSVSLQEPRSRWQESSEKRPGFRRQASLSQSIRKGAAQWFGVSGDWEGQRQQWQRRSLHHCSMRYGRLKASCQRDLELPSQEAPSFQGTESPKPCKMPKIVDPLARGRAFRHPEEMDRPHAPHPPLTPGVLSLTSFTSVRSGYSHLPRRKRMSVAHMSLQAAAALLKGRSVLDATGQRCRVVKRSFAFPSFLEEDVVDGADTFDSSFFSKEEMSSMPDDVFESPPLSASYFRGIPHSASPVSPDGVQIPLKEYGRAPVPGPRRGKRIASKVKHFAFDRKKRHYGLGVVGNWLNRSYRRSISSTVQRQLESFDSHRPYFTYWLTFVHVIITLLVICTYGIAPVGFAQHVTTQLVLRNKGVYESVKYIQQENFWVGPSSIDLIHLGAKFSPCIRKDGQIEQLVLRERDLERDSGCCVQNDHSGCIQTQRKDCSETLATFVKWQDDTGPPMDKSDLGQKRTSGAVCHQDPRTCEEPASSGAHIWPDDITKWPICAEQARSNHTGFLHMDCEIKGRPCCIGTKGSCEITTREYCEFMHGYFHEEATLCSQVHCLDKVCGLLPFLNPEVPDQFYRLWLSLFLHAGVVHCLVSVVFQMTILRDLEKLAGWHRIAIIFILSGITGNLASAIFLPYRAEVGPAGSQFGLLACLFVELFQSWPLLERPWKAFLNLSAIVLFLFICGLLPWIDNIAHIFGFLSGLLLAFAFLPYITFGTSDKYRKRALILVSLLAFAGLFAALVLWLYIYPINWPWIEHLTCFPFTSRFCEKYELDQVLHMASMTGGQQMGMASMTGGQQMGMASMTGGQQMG
Method in brief: as §1

| Binder | loss of binding vs wild type [1] [%] | loss of binding vs wild type [2] [%] |
| --- | --- | --- |
| antibody 50 (antibody, V domains shown, mouse IgG, kappa light chain; also called clone #50; purified antibody 50) VH: QVQLQQSGAELVRPGASVKVSCKASGYAFSNYLIEWVKQRPGQGLEWIGVINPGSGFTKYNEKFKGKATLTADKSSSTAYMQLSSLTSEDSAVYFCARGLYRAMDYWGQGTSVTVSS VL: DIQMTQSPASQSASLGESVTITCLASQTIGTWLAWYQQKPGKSPQLLIYAAASLADGVPSRFSGGGSGTKFSFKISSLQAEDFVNYYCQQIYSTPYTFGGGTKLEIK | ≥ 30 |  |
| antibody 3 (antibody, V domains shown, mouse IgG, kappa light chain; also called clone #3; purified antibody 3) VH: QVTLKESGPGILQPSQTLSLTCSFSGFSLTTFAMGIGWVRQPSGKGLEWLAHIWWDGEKYNNPVLKSRLTISKDTSKNQVFLRIANVDTPDTATYYCARISSIYYIIDNWGQGTSVTVSS VL: DIVLTQSPATLSVTPGHSVSLSCRASQSISNNLHWYQKKSHESPRLLIKYVSQSISGIPSRFSGSGSGTDFTLSINSVETEDFGMYFCQQSYNWPLTFGAGTKLELK |  | ≥ 30 |
